For one assay, the target named is ICAM-1 (Homo sapiens, UniProt P05362). Nature of the assay: BIAcore binding of soluble αL I-domains to ICAM-1. The protocol:
(§1) Briefly, recombinant mutant αL I-domain stabilized in the open conformation (K287C/K294C), or recombinant wild-type αL I-domain from amino acid residue G128 to Y307, were cloned into pET11b (Novagen) and expressed in E. coli induced with 1 mM IPTG for 4 hours. The recombinant proteins were purified from inclusion bodies by solubilization of inclusion bodies in 6M guanidine HCl and were refolded by dilution in the presence of 0.1 mM Cu^2+/phenanthrolin to enhance formation of disulfide bonds. Protein was concentrated by ammonium sulfate precipitation, dialyzed, and purified over a monoQ ion-exchange column. […] The recombinant proteins were then purified by gel filtration and concentrated by Centriprep. For BIAcore™ analysis, recombinant ICAM-1, ICAM-2 and ICAM-3 Fc chimeras were immobilized on the BIAcore™ sensor chip by an amine-coupling method. Recombinant αL I-domains were flowed in, and BIAcore™ assays were performed with Tris-buffered saline supplemented with 1 mM MgCl2 or 2 mM EDTA, at a flow rate of 10 μl/minute at 25° C.
(Surface plasmon resonance follows binding to a sensor surface in real time, without labels.)

Assay [1] relates to T-lymphocytes in peripheral lymph node high endothelial venules. Description: Intravital microscopy of lymphocyte behaviour in peripheral lymph node high endothelial venules. It counts as in vivo. The conditions noted are these: mouse. The protocol: Moreover, the ability of the open I-domain mutants to inhibit LFA-1 function in vivo was tested by visualizing microcirculation in the peripheral lymph node (LN) with intravital microscopy. Briefly, a small bolus (20-50 µl) of LN cell suspensions from […] mice were retrogradely injected through a femoral artery catheter and visualized in the subiliac LN by fluorescent epi-illumination from a video-triggered xenon arc stroboscope. After recording control […] cell behavior in the absence of 1-domain, the mouse was pretreated by intra-arterial injection of 1-domain (10 µg/g of weight) 5 minutes before T^GFP cell injection. All scenes were recorded on videotape and off-line analysis was done. The rolling fraction was calculated as percentage of rolling cells amount the total number of TGFβ cells that entered a venule. The sticking (firm adhesion) fraction was determined as the percentage of T^GFP cells becoming firmly adherent for >20 seconds in the number of T^GFP cells that rolled in a venule. Results were semi-quantitatively scored as follows: −: 0%, .+−.: 0-5%, +: 5-20%, ++: 20-40%, +++: 40-60%, ++++: 60-80%, +++++:80-100%.

The next assay deals with T1, ICAM-2 (Homo sapiens, UniProt P13598).
T1 sequence (P13598 25-223 limits assumed): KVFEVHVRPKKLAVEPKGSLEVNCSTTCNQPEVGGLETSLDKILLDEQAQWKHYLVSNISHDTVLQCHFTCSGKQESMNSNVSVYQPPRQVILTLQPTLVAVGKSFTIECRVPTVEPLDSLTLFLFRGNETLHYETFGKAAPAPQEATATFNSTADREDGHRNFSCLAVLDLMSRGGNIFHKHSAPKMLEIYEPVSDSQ
Nature of the assay: BIAcore binding of soluble αL I-domains to ICAM-2. The conditions noted are these: 1:1 interaction model. Here is the method:
as §1

Assay [2] relates to murine T lymphoma cell line EL-4. Description: PMA-induced LFA-1-dependent homotypic aggregation of EL-4 cells. The format is cell-based. The conditions noted are these: 50 ng/ml PMA, 2 hours at 37° C. Here is the method: Cells were incubated in a 96 well plate in the presence of 50 ng/ml PMA and varying amounts of soluble I-domains.
In a further assay the target is murine ICAM-1 (Mus musculus, UniProt P13597). Nature of the assay: Affinity of open I-domain for murine ICAM-1. It counts as binding. Here is the method: as §1
To analyze binding kinetics, different concentrations of open I-domain were tested for ligand binding (FIG. 9, Panels B, D and F).

The test system of assay [3] is K562 cells stably expressing wild-type LFA-1. Description: Inhibition by soluble I-domains of adhesion of LFA-1 expressing K562 cells to immobilized ICAM-1. The format is cell-based, human. The conditions noted are these: LFA-1 activated by CBRLFA-1/2; 40 minutes at 37° C. Here is the method:
The activity of the soluble open I-domain to inhibit LFA-1I-dependent adhesion was tested. In one study, K562 cells stably expressing wild-type LFA-1 were fluorescently labeled by BCECF and LFA-1 on the cell surface was activated by the activating monoclonal antibody, CBRLFA-1/2 in L15 media supplemented with FCS. The cells were subsequently incubated in ICAM-1 coated 96-well plastic plates in the presence or absence of 1-domains. After incubation for 40 minutes at 37° C., unbound cells were washed off on a Microplate Autowasher. The fluorescence content of total input cells and the bound cells in each well was quantitated on a Fluorescent Concentration Analyzer. The bound cells were expressed as a percentage of total input cells per sample well.

The mark [4] stands for this setting: BIAcore, 1:1 interaction model, 1 mM MgCl2, 25° C.

Data on 1 molecule can be found in patent US8241627B2, “Modified polypeptides stabilized in a desired conformation and methods for producing same” (The Center for Blood Research, Inc., priority 2000, dated 2012).

Chain of ICAM-1 (P05362 28-480 limits assumed): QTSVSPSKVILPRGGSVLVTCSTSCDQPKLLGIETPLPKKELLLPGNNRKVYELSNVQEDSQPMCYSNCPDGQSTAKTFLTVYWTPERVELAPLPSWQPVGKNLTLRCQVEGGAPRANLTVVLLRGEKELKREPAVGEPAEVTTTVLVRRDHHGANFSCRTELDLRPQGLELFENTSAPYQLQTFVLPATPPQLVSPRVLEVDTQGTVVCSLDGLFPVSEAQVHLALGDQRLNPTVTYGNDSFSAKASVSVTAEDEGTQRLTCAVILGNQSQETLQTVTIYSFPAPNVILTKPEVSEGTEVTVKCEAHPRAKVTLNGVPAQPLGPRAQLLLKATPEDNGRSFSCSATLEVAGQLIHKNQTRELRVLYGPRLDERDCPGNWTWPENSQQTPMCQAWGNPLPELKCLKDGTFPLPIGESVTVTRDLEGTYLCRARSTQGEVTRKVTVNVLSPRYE
Chain of murine ICAM-1 (P13597 28-537): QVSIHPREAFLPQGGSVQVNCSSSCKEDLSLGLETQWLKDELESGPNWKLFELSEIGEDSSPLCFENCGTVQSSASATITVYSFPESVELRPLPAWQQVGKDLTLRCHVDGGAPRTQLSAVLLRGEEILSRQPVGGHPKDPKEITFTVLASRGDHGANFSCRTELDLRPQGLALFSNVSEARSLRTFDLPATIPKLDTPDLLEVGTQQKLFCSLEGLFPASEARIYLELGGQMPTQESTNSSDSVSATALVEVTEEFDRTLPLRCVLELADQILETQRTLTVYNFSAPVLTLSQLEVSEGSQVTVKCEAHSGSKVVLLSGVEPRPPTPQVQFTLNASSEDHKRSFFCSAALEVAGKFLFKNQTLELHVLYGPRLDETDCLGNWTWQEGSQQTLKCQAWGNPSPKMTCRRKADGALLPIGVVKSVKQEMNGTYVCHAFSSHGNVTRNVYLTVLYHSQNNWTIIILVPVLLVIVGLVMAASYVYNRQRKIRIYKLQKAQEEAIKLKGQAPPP

B1: K287C/K294C: human αL (LFA-1) I-domain with K287 and K294 replaced by cysteines; high affinity locked open; tested in intact LFA-1, cell-surface and soluble forms (protein)
chain: GNVDLVFLFDGSMSLQPDEFQKILDFMKDVMKKLSNTSYQFAAVQFSTSYKTEFDFSDYVKRKDPDALLKHVKHMLLLTNTFGAINYVATEVFREELGARPDATKVLIIITDGEATDSGNIDAAKDIIRYIIGIGKHFQTKESQETLHKFASKPASEFVCILDTFECLKDLFTELQKKIY
notes: human αL (LFA-1) I-domain with K287 and K294 replaced by cysteines; tested in intact LFA-1, cell-surface and soluble forms
With B1, the “interaction of I-domain with ligands in the presence of EDTA” value with ICAM-1 (2 mM EDTA, ligands ICAM-1, -2, -3) is reported as “abolished”. Further, in the assay with ICAM-1 (setting [4]), the “Koff, open I-domain binding to ICAM-1” value stood at 0.0230 s⁻¹ and the “Kon, open I-domain binding to ICAM-1” value was determined as 128000 M⁻¹ s⁻¹. The “Kon, interaction of αL I-domains with ICAM-1” value with ICAM-1 (calculated by Koff/KD) is 128000 M⁻¹ s⁻¹. In addition, in the assay with ICAM-1 (curve fitting of dissociation phase, 1:1 binding model), the “Koff, interaction of αL I-domains with ICAM-1” value was found to be 0.0230 s⁻¹. In assay [1] (injection of I-domain), the “firm adhesion of T-lymphocytes to high endothelial venules” value was “effectively blocked”; the “lymphocyte rolling mediated by L-selectin and PNAd” value is “not compromised”. For the same molecule, the Fraction transmigration result in assay [1] (intra-arterial I-domain 10 μg/g) is on record as “− (−: 0%)”. For the same molecule, the “Fraction Rolling” value in assay [1] (intra-arterial I-domain 10 μg/g 5 minutes before T-GFP cell injection) is given as “++++ (++++: 60-80%)”. Moreover, the Fraction firm adhesion entry in assay [1] (intra-arterial I-domain 10 μg/g, adherent >20 seconds) is on record as “± (.+−.: 0-5%)”. In the assay with ICAM-2, the “Koff, open I-domain binding to ICAM-2” value was determined as 0.0118 s⁻¹ and the “Kon, open I-domain binding to ICAM-2” value worked out at 23000 M⁻¹ s⁻¹. The “inhibition of PMA-induced LFA-1 dependent homotypic aggregation” value in assay [2] is “inhibited”. The “affinity for murine ICAM-1” value with murine ICAM-1 is given as “nanomolar range”. The “inhibition of adhesion of LFA-1 expressing cells to immobilized ICAM-1” value in assay [3] is “strongly inhibited”.
